In the RNAGym collection of RNA variant scans (doi:10.7554/elife.80360):

B1: Hammerhead Ribozyme (parent)
chain: ACCGGAUGUGCUUUCCGGUCUGAUGAGUCCGUGAGGACGAAACAG

Variants of: B1
Experiment: self-cleavage, relative activity (ratio to wild type); higher = more cleavage; co-transcriptional

Row | Variant | self-cleavage
1 | C2G A40C | 0.352
2 | C2G A40U | 0.287
3 | C2G A40G | 0.266
4 | C2G A37C | 0.311
5 | C2G A37U | 0.293
6 | C2G A37G | 0.351
7 | C2G A34G | 0.279
8 | C2G A34C | 0.352
9 | C2G A34U | 0.347
10 | C2G C38U | 0.338
11 | C2G C38A | 0.336
12 | C2G C38G | 0.317
13 | C2G C16G | 0.294
14 | C2G C16U | 0.299
15 | C2G C16A | 0.335
16 | C2G G25A | 0.325
17 | C2G G25U | 0.272
18 | C2G G25C | 0.267
19 | C2U A41G | 0.389
20 | C2U A41U | 0.365
21 | C2U A41C | 0.35
22 | C2G G36U | 0.325
23 | C2G G36C | 0.336
24 | C2G G36A | 0.3

Row | Variant | self-cleavage
25 | C2G U13G | 0.332
26 | C2G U13C | 0.4
27 | C2G U13A | 0.353
28 | C2G A41G | 0.369
29 | C2G A41C | 0.271
30 | C2G A41U | 0.293
31 | C2G G8C | 0.302
32 | C2G G8U | 0.387
33 | C2G G8A | 0.385
34 | C2G G35C | 0.339
35 | C2G G35A | 0.271
36 | C2G G35U | 0.272
37 | C2G | 0.455
38 | C2U | 1.17
39 | C2G C11A | 0.378
40 | C2G C11U | 0.32
41 | C2G C11G | 0.402
42 | C2G C30U | 0.354
43 | C2G C30A | 0.374
44 | C2G C30G | 0.237
45 | C2G G4U | 0.219
46 | C2G G4C | 0.233
47 | C2G G4A | 0.322
48 | C2G A26U | 0.315

Row | Variant | self-cleavage
49 | C2G A26C | 0.341
50 | C2G A26G | 0.292
51 | C2G A6C | 0.196
52 | C2G A6U | 0.321
53 | C2G A6G | 0.292
54 | C2G G5A | 0.295
55 | C2G G5C | 0.309
56 | C2G G5U | 0.296
57 | C2G U7A | 0.364
58 | C2G U7C | 0.373
59 | C2G U7G | 0.364
60 | C2G G10A | 0.383
61 | C2G G10U | 0.379
62 | C2G G10C | 0.38
63 | C2G G39C | 0.289
64 | C2G G39A | 0.342
65 | C2G G39U | 0.268
66 | C2G C43U | 0.305
67 | C2G C43A | 0.328
68 | C2G C43G | 0.308
69 | C2U C3A | 0.417
70 | C2U C3U | 0.588
71 | C2U C3G | 0.319
72 | C2G U32G | 0.379

Row | Variant | self-cleavage
73 | C2G U32A | 0.418
74 | C2G U32C | 0.332
75 | C2G U12C | 0.342
76 | C2G U12G | 0.31
77 | C2G U12A | 0.335
78 | C2G C15G | 0.29
79 | C2G C15U | 0.304
80 | C2G C15A | 0.302
81 | C2G G45U | 0.335
82 | C2G G45A | 0.349
83 | C2G G45C | 0.331
84 | C2G C29G | 0.354
85 | C2G C29A | 0.311
86 | C2G C29U | 0.365
87 | C2G G18U | 0.669
88 | C2G G18C | 0.651
89 | C2G G18A | 0.459
90 | C2G U19C | 0.308
91 | C2G U19A | 0.294
92 | C2G U19G | 0.275
93 | C2U C11A | 1.46
94 | C2U C11U | 0.739
95 | C2U C11G | 1.5
96 | C2U A26U | 0.89

Row | Variant | self-cleavage
97 | C2U A26G | 0.34
98 | C2U A26C | 0.514
99 | C2G U14C | 0.317
100 | C2G U14A | 0.314
101 | C2G U14G | 0.309
102 | C2G G31C | 0.376
103 | C2G G31U | 0.503
104 | C2G G31A | 0.43
105 | C2U A37U | 0.849
106 | C2U A37C | 0.782
107 | C2U A37G | 1.01
108 | C2G A44C | 0.322
109 | C2G A44U | 0.323
110 | C2G A44G | 0.627
111 | C2U A44C | 0.664
112 | C2U A44U | 0.646
113 | C2U A44G | 1.55
114 | C2G C20U | 0.344
115 | C2G C20A | 0.274
116 | C2G C20G | 0.297
117 | C2U A6C | 0.429
118 | C2U A6G | 0.927
119 | C2U A6U | 0.865
120 | C2G U24A | 0.476

Row | Variant | self-cleavage
121 | C2G U24G | 0.356
122 | C2G U24C | 0.383
123 | C2U A42U | 0.301
124 | C2U A42G | 0.467
125 | C2U A42C | 0.358
126 | C2U A40C | 0.51
127 | C2U A40G | 0.284
128 | C2U A40U | 0.346
129 | C2G G17A | 0.377
130 | C2G G17U | 0.291
131 | C2G G17C | 0.329
132 | C2U A23U | 0.415
133 | C2U A23G | 0.385
134 | C2U A23C | 0.558
135 | C2G C3G | 0.353
136 | C2G C3U | 0.36
137 | C2G C3A | 0.283
138 | C2G A23G | 0.318
139 | C2G A23C | 0.294
140 | C2G A23U | 0.321
141 | C2G A42C | 0.32
142 | C2G A42G | 0.273
143 | C2G A42U | 0.292
144 | C2G U28C | 0.262

Row | Variant | self-cleavage
145 | C2G U28A | 0.37
146 | C2G U28G | 0.315
147 | C2G U21G | 0.331
148 | C2G U21A | 0.314
149 | C2G U21C | 0.329
150 | C2A U32G | 0.469
151 | C2A U32C | 0.632
152 | C2A U32A | 0.784
153 | C2G G27A | 0.282
154 | C2G G27C | 0.303
155 | C2G G27U | 0.327
156 | C2G G22U | 0.312
157 | C2G G22C | 0.296
158 | C2G G22A | 0.292
159 | C2U A34C | 0.933
160 | C2U A34U | 0.972
161 | C2U A34G | 0.841
162 | C2G G33A | 0.463
163 | C2G G33C | 0.443
164 | C2G G33U | 0.535
165 | C2G U9G | 0.32
166 | C2G U9C | 0.357
167 | C2G U9A | 0.367
